Drawing on patent US20180243365A1, this text covers molecules of PepB2 calculated to bind a single molecule of TcdB (molecules of PepB2 per molecule of TcdB) for one substance.

The target of the assay is TcdB2 toxin (recombinant, full length) (Clostridium difficile). Briefly: SPR, TcdB2 immobilized, PepB2 injected; multivalent interaction, no affinity or rate constant determined. On the technique in general: Surface plasmon resonance follows binding to a sensor surface in real time, without labels.

As to “PepB2 (Peptide 5; amino acids 1769-1787 of TcdB2)”, the molecules of PepB2 calculated to bind a single molecule of TcdB (molecules of PepB2 per molecule of TcdB) is 250.
